Test results: the supplement of paper PMC10567573
± gives the standard deviation.

Test: protein stability index of a GFP-peptide fusion (GPS, HEK-293T) (PSI 1-6); higher = more stable
[1] = treatment: DMSO, c terminus: a fixed tail appended
[2] = treatment: MLN4924 1 uM, 8 h, c terminus: a fixed tail appended
[3] = treatment: DMSO, c terminus: native
[4] = treatment: MLN4924 1 uM, 8 h, c terminus: native
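Also: 24-mer peptide tiles fused after GFP, lentivirally expressed, FACS-sorted into six equal bins by GFP/DsRed ratio, decoded by Illumina sequencing, PSI is the read-weighted mean bin number.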

Row | Sequence | protein stability index [1] | protein stability index [2] | protein stability index [3] | protein stability index [4]
1 | YKKGRMMKDISNLEENDETRFILS [SLC6A17] | 3.35 ± 0.29 | 3.09 ± 0.39 |  | 
2 | HQAQLISKIPHILKEMYDADLLEE [EIF5] | 2.94 ± 0.24 | 3.27 ± 0.59 |  | 
3 | IDSGSPAEEAGLKNNDLVVAVNGE [PDZK1] | 5.45 ± 0.48 | 5.58 ± 0.2 |  | 
4 | ARGGAVSARYVLPDEAARARLLQE [DUSP5] | 4.63 ± 0.16 | 4.54 ± 0.34 |  | 
5 | GSAAKLVCYFTNWAQYRQGEARFL [CHIT1] | 2.1 ± 0.36 | 2.23 ± 0.18 |  | 
6 | KPYNCLQCLDKTNESALVKEKELS [MTUS2] | 4.74 ± 0.14 | 4.59 ± 0.23 |  | 
7 | HLEKKGPQVRDWSHYFKIIEDLRA [KRT18] | 2.41 ± 0.13 | 2.69 ± 0.14 |  | 
8 | VVLGNIIKKKGWRRSSLVITTKIF [KCNAB2] | 2.86 ± 0.34 | 2.74 ± 0.55 |  | 
9 | FQEAMTHLQHKLICTRKPEEIRGG [TENT5D] | 3.05 ± 0.17 | 3.29 ± 0.41 |  | 
10 | EDGMQCLQLKETLATQEPTDNQVR [DLC1] | 5.35 ± 0.13 | 5.5 ± 0.092 |  | 
11 | SSIPRRDDFFRHESGEHFRSLLGY [RAD54B] | 2.65 ± 0.21 | 2.57 ± 0.33 |  | 
12 | RDFHRKILTLPEMMRMFSENLAHH [TRIM15] | 2.25 ± 0.17 | 2.31 ± 0.051 |  | 
13 | FRTDPEAKVKLVFVEDQAVVETVF [ZSWIM9] | 2.46 ± 0.38 | 2.5 ± 0.32 |  | 
14 | ESLPHRLSCLGQQQQEPPLAMGTV [PLAGL1] | 3.92 ± 0.17 | 4.04 ± 0.26 |  | 
15 | DAALLEMENNHTVAITILQDDHDH [MTUS2] | 4.98 ± 0.21 | 4.92 ± 0.065 |  | 
16 | LKGARLTVEQGCQILDSLSYMRNE [FBXO39] | 2.68 ± 0.35 | 2.85 ± 0.38 |  | 
17 | MAGLQRLASHLPVGVMLPHNTTEA [ZC2HC1C] | 3.5 ± 0.13 | 3.36 ± 0.27 |  | 
18 | LESRQRSLEQANRSLQLRIQELEL [TFE3] | 3.97 ± 0.27 | 3.98 ± 0.4 |  | 
19 | IQQELIKQEQSIISEYEKSLQFDE [RPAIN] | 4.64 ± 0.12 | 4.67 ± 0.079 |  | 
20 | QTYFRQNRDEVLDNLLAFVCDIRP [ATP6V1G1] | 2.64 ± 0.44 | 2.27 ± 0.23 |  | 
21 | WAEIAKMLPGRTDNAVKNHWNSTI [MYBL2] | 2.18 ± 0.28 | 2.16 ± 0.18 |  | 
22 | MPPATGGGLAESELRPRRGRCGPQ [POMT2] | 4.59 ± 0.17 | 4.61 ± 0.18 |  | 
23 | LLRHQRIHTGERPYKCPECGKSFS [ZNF263] | 2.71 ± 0.47 | 3.58 ± 0.47 |  | 

Row | Sequence | protein stability index [1] | protein stability index [2] | protein stability index [3] | protein stability index [4]
24 | ILGVIGLFTIPLLYRQHQAQIDQY [RTN2] | 3.28 ± 0.71 | 3.1 ± 0.84 |  | 
25 | RDNPMCLKCDLQERLLCPSLLAGT [M1AP] | 2.28 ± 0.14 | 2.16 ± 0.23 |  | 
26 | NKHLFYAEDFSTMDEISEKLKKGI [MATN2] | 3.79 ± 0.36 | 3.76 ± 0.39 |  | 
27 | YIMAFDIKSEDMLKILKPSIPLER [FBXO33] | 2.34 ± 0.44 | 2.67 ± 0.4 |  | 
28 | DCPMDSSSSRDTDWVVVKEPVIKV [PI4K2A] | 3.6 ± 0.4 | 4 ± 0.53 |  | 
29 | AIHSSDEGEDQAGDEDEDDEWDD [WAS] |  |  | 5.06 ± 0.3 | 5.25 ± 0.29
30 | IEILPNVCYTACATLKGPDSHYGT [BTBD1] | 2.26 ± 0.19 | 2.31 ± 0.2 |  | 
31 | LLTFQQITTVSKAKGASLFTCDLQ [VPS39] | 2.14 ± 0.2 | 2.07 ± 0.27 |  | 
32 | DEEKKARRGRSPKGEFKDEEETVT [CLINT1] | 5.43 ± 0.28 | 5.57 ± 0.14 |  | 
33 | WHDVQVSSAYVKTSEKLGEWNEKV [TPD52L2] | 3.64 ± 0.26 | 3.8 ± 0.24 |  | 
34 | QNAALRGELSQARGQEPARADQLC [PRPH] | 5.12 ± 0.23 | 5.02 ± 0.37 |  | 
35 | REESLPNLLQYVRMPLLTPRYITD [KLHL12] | 2.8 ± 0.38 | 2.63 ± 0.34 |  | 
36 | RITITESNMKSRYTTEFHELEKIG [WEE1] | 3.03 ± 0.37 | 3.59 ± 0.55 |  | 
37 | SDVIEYAKQKLDFFIRTSDSFDKF [PCMTD2] | 2.36 ± 0.22 | 2.48 ± 0.19 |  | 
38 | NKTQQVIHIIDFGLAKEYIDPETK [CSNK1G3] | 2.48 ± 0.52 | 2.47 ± 0.41 |  | 
39 | DDGYSTKDSYSSRDYPSSRDTRDY [RBMX] | 4.9 ± 0.25 | 4.77 ± 0.081 |  | 
40 | IACYVMKHYRFTHAEIIAWIRICR [CDC14A] | 2.37 ± 0.72 | 2.24 ± 0.53 |  | 
41 | VCEVQVHGGSLLGKKYNWSCDDLM [GFOD1] | 2.58 ± 0.16 | 2.35 ± 0.32 |  | 
42 | QPIHLWQFLKELLLKPHSYGRFIR [SPDEF] | 2.69 ± 0.13 | 2.65 ± 0.19 |  | 
43 | AWETKKILAVSFAPLIQPCHSESG [PCMTD2] | 2.35 ± 0.2 | 2.54 ± 0.35 |  | 
44 | KPGKGADLSKPPCRKAKEIRKERK [ATE1] | 4.65 ± 0.44 | 5.04 ± 0.3 |  | 
45 | QGTARTLSPVLESPRDLQFSEIRE [TNXB] | 4.64 ± 0.16 | 4.78 ± 0.18 |  | 
46 | APYFERSSSKRYTMSRSLDGASVN [EPB41L3] | 3.3 ± 0.33 | 3.44 ± 0.7 |  | 

Row | Sequence | protein stability index [1] | protein stability index [2] | protein stability index [3] | protein stability index [4]
47 | NSRFQMLFTSFQEPPCEGNTFFCH [NETO1] | 2.23 ± 0.45 | 2.23 ± 0.11 |  | 
48 | RPPFGAAAVPGTQLSPSPTPASQS [SNAP91] | 4.79 ± 0.16 | 4.86 ± 0.055 |  | 
49 | SYCPHCGEESSKAKEVTIAKADTT [EHMT1] | 4.27 ± 0.19 | 4.58 ± 0.19 |  | 
50 | LKPFFMKEVGSHFDDFVTNLIEKS [SOAT1] | 2.48 ± 0.32 | 2.88 ± 0.13 |  | 
51 | MFPLHLAALNAHSDCCRKLLSSGF [ANKRD44] | 2.57 ± 0.4 | 2.15 ± 0.31 |  | 
52 | RRKSEAGSGAASSSGEDKENDGFV [CDC25B] | 5.42 ± 0.29 | 5.49 ± 0.18 |  | 
53 | ELDELQAAFEEFDTDRDGYISHRE [CABP4] | 5.26 ± 0.25 | 5.32 ± 0.15 |  | 
54 | ACGVILYILLVGYPPFWDEDQHRL [CAMK2D] | 2.6 ± 0.9 | 2.63 ± 0.51 |  | 
55 | GCDPLVKPVGRQACDLQPCPTEPP [ADAMTSL2] | 4.2 ± 0.049 | 4.54 ± 1.2 |  | 
56 | DQEGLQRITGLSPGRSALIVAVLC [SPNS1] | 2.31 ± 0.46 | 2.27 ± 0.35 |  | 
57 | QPSGMKEGVKRYEQEHAAIQDKLF [CHCHD6] | 4.55 ± 0.12 | 4.14 ± 0.21 |  | 
58 | KAALAALCPGDLIQAINGESTELM [PDLIM4] | 3.495 ± 0.025 | 3.77 ± 0.21 |  | 
59 | EVVNRKFGNRIKVLRSRIRFIHLV [POMT2] | 2.56 ± 0.22 | 2.43 ± 0.43 |  | 
60 | LTKASLKPRGCSKPPWRPPGGKL [SPACA9] |  |  | 2.55 ± 0.65 | 3.35 ± 1
61 | IDPETKKHIPYREHKSLTGTARYM [CSNK1G3] | 3.38 ± 0.45 | 3.72 ± 0.18 |  | 
62 | PYPASKADIPSVAFSSRLGGSRGA [DCAF4] | 3.71 ± 0.22 | 3.8 ± 0.41 |  | 
63 | SQSLWNRLSVLLNLLPAAGELQES [SMG5] | 2.75 ± 0.37 | 2.25 ± 0.18 |  | 
64 | PAAAPEGDWARLLEQMGALAVRGS [ZBED3] | 3.62 ± 0.3 | 3.59 ± 0.37 |  | 
65 | AIQDQLPRLQQLLKTLEEGLEGLE [FANCE] | 3.61 ± 0.32 | 3.68 ± 0.23 |  | 
66 | TRIHILPSMNPDGYEVAAAQGPNK [CPN1] | 4.13 ± 0.25 | 4.06 ± 0.27 |  | 
67 | LSEDYNKMTPVKNYQAHQSRVTMI [WDFY2] | 2.71 ± 0.12 | 2.83 ± 0.13 |  | 
68 | CDPSRIYKPQTRLKRKQPVRKRQ [DFFB] |  |  | 3.96 ± 0.36 | 4.15 ± 0.13
69 | KILAEAAKLVPMGFTTATEFHQRR [RAD51] | 2.56 ± 0.23 | 2.7 ± 0.52 |  | 

Row | Sequence | protein stability index [1] | protein stability index [2] | protein stability index [3] | protein stability index [4]
70 | LGKMLIGLAGYLSGYDGTFLFQKP [POMT2] | 2.65 ± 0.86 | 2.45 ± 0.79 |  | 
71 | RNRPKSTVNTHYFSIDEELVYENF [CDC14A] | 2.99 ± 0.37 | 3.39 ± 0.38 |  | 
72 | NAAYFVGKWMKKFPESETKECPFR [SERPINB5] | 2.77 ± 0.29 | 2.98 ± 0.47 |  | 
73 | RKKSKPKKCVKKFVEYCDVNNDKS [SMOC2] | 3.52 ± 0.22 | 3.93 ± 0.58 |  | 
74 | RAPSERSGPAASEHSHRSHHSLAS [DVL3] | 4.68 ± 0.28 | 4.68 ± 0.21 |  | 
75 | DRLRINRFAWPKVLKISYKRNNFY [EPB41L3] | 1.81 ± 0.57 | 1.69 ± 0.4 |  | 
76 | TGMWWRHLVAGGGAGAVSRTCTAP [SLC25A25] | 2.32 ± 0.25 | 2.48 ± 0.42 |  | 
77 | MYEMLIGYPPFCSETPQETYRKVM [STK38L] | 2.2 ± 0.33 | 2.1 ± 0.3 |  | 
78 | HHSFPYDYSASEYRWHINFTTFFI [SCD] | 3.06 ± 0.5 | 2.86 ± 0.41 |  | 
79 | RMKEPSSPPPAPTSSTFGLQDGNL [CHCHD6] | 4.63 ± 0.26 | 4.53 ± 0.35 |  | 
80 | EVFYYSCEYNFVSPSKSFWTRITC [CFHR2] | 3.39 ± 0.15 | 2.31 ± 0.27 |  | 
81 | LIQNGGEIDCVDKDGNTPLHVAAR [ANKRD44] | 4.32 ± 0.087 | 4.53 ± 0.16 |  | 
82 | RLFTVNDVKVGGSKYGIINLQSLK [DCAF4] | 2.14 ± 0.14 | 2.27 ± 0.37 |  | 
83 | DFYEAMDDYTSAIEVQPNFEVPYY [TTC32] | 2.64 ± 0.23 | 2.84 ± 0.3 |  | 
84 | DRVQVERDGLAEDLAALKQRLEEE [PRPH] | 5.49 ± 0.16 | 5.17 ± 0.25 |  | 
85 | VQDEFLDTPCTNRGLPLLKTDFGS [DLC1] | 3.85 ± 0.43 | 3.91 ± 0.41 |  | 
86 | MHKHNETSQKIAARAFAQRYLADL [RSPH3] | 2.63 ± 0.094 | 2.84 ± 0.22 |  | 
87 | PDVTQLTPPSHDLTDNIFPRLVC [ANKRD17] |  |  | 2.45 ± 0.28 | 2.4 ± 0.25
88 | GNSSGSDVTSLSSQLPDTPNSMVP [ISL2] | 5.13 ± 0.2 | 4.9 ± 0.32 |  | 
89 | LPECLEYEEEFDYETESETESEIE [GNAS] | 5.3 ± 0.15 | 5.26 ± 0.23 |  | 
